In patent publication US20070265201A1, “INHIBITORS OF IN[…] TRA[…] FROM HCMV PROTEIN IE2” (priority 2005, published 2007):

Tested on: C/EBPβ
Assay: Specificity control: C/EBPβ expression by western blot of transfected HeLa-S3 lysates
Format: cell-based
Conditions: HeLa-S3 cell lysates, FIG. 4C
Experimental: FIGS. 4A-4D. […] FIG. 4D is another specificity control showing that a control GFP expression vector was not affected by either IE2 291-343 or IE2 291-364. HeLa-S3 cells were transfected with both a GFP expression vector and cotransfected with either E2 291-343 or IE 291-364 expression vectors and GFP expression analyzed 24 hours later by a fluorescence activated cell sorter.
Because the IE2 291-364 region was previously mapped as one of three TBP binding sites on IE2, it was possible that the inhibitory function was due to interaction with TBP. To exclude this possibility, the expression of two other genes that contain TATA boxes in their promoters were investigated. First, an observed the expression of C/EBPβ from the expression vector by western blot (FIG. 4C) was conducted. […] Second, His-tagged inhibitors were cotransfected with ev GFP and the geometric mean brightness of transfected cells measured by flow cytometry (FIG. 4D). […] It is believed that the basis for the interaction is localized to residues 315-328 of the IE2 molecule because a variant of IE2 291-364 missing the 315-328 region (delA) lacks binding to Spi-1 ETS domain in a GST fusion pull-down assay (FIG. 5).

B1: GFP 291-364 (protein)
chain: SSHHGRGGFGGAASSSLLSCGHQSSGGASTGPRKKKSKRISELDNEKVRNIMKDKNTPFCTPNVQTRRGRVKID
modifications: left off: large carriers
For B1, the “effect on expression of C/EBPβ protein (western blot)” value was “no reduction”.
